According to paper PMC6687543 (Structure (London, England : 1993), 2019):

Biological target: T1, preformed binary complex IL-18/IL-18Rα-ECD ( | human, UniProt Q14116 37-193; Q13478 22-329)
T1 sequence (looked up) 1: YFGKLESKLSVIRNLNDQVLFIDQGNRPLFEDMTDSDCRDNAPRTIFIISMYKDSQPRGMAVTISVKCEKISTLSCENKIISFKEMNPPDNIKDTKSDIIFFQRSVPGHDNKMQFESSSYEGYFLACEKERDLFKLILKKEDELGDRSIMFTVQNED
T1 sequence (looked up) 2: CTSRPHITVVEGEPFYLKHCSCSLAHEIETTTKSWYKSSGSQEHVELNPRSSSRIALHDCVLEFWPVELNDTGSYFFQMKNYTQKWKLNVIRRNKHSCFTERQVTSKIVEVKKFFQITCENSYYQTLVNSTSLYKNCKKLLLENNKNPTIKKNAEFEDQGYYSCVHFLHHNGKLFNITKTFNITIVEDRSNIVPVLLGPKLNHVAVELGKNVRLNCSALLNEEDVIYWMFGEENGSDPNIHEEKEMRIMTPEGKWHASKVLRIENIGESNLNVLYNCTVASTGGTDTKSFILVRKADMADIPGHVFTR
Test: SPR

binding result: binds
B1: IL-18Rβ-ECD (extracellular domain of IL-18 receptor beta), wild type (receptor, human, UniProt O95256 20-354, looked up)
chain: FNISGCSTKKLLWTYSTRSEEEFVLFCDLPEPQKSHFCHRNRLSPKQVPEHLPFMGSNDLSDVQWYQQPSNGDPLEDIRKSYPHIIQDKCTLHFLTPGVNNSGSYICRPKMIKSPYDVACCVKMILEVKPQTNASCEYSASHKQDLLLGSTGSISCPSLSCQSDAQSPAVTWYKNGKLLSVERSNRIVVDEVYDYHQGTYVCDYTQSDTVSSWTVRAVVQVRTIVGDTKLKPDILDPVEDTLEVELGKPLTISCKARFGFERVFNPVIKWYIKDSDLEWEVSVPEAKSIKSTLKDEIIERNIILEKVTQRDLRRKFVCFVQNSIGNTTQSVQLKE
modifications: biotin (biotinylated IL-18Rβ-ECD, site not stated)
